Test results taken from the MegaScale stability set (Tsuboyama et al. 2023).

B1: r11_951_TrROS_Hall (parent)
chain: KKKYVIKVYFEDTGKEVEIEAESKEEALEAAKRLAEELGLKIKKVEIYP

Variants of: B1
Assay: folding stability dG (cDNA display proteolysis); higher = more stable
Settings: PBS, room temperature

Variant	folding stability dG [kJ/mol]
KKKYVIKVYFEDTGKEVEIEAESKEEALEAAKRLAEELGLKIKKDEIYP [V45D]	11
KKKYVIKVYFEDTGKEVEIEAESKEEALEAAKRLAEELGLKIKKQEIYP [V45Q]	16.2
KKKYVIKVYFEDTGKEVEIEAESKEEALEAAKRLAEELGLKIKKFEIYP [V45F]	18.8
KKKYVIKVYFEDTGKEVEIEAESKEEALEAAKRLAEELGLKIKKGEIYP [V45G]	11.7
KKKYVIKVYFEDTGKEVEIEAESKEEALEAAKRLAEELGLKIKLVEIYP [K44L]	17.3
KKKYVIKVYFEDTGKEVEIEAESKEEALEAAKRLAEELGLKIKNVEIYP [K44N]	18.5
KKKYVIKVYFEDTGKEVEIEAESKEEALEAAKRLAEELGLKIKHVEIYP [K44H]	18.7
KKKYVIKVYFEDTGKEVEIEAESKEEALEAAKRLAEELGLKIKYVEIYP [K44Y]	18.2
KKKYVIKVYFEDTGKEVEIEAESKEEALEAAKRLAEELGLKIKSVEIYP [K44S]	18.5
KKKYVIKVYFEDTGKEVEIEAESKEEALEAAKRLAEELGLKIKTVEIYP [K44T]	17.5
KKKYVIKVYFEDTGKEVEIEAESKEEALEAAKRLAEELGLKIKIVEIYP [K44I]	17.6
KKKYVIKVYFEDTGKEVEIEAESKEEALEAAKRLAEELGLKIKDVEIYP [K44D]	16.5
KKKYVIKVYFEDTGKEVEIEAESKEEALEAAKRLAEELGLKIKFVEIYP [K44F]	18
KKKYVIKVYFEDTGKEVEIEAESKEEALEAAKRLAEELGLKIKEVEIYP [K44E]	17.8
KKKYVIKVYFEDTGKEVEIEAESKEEALEAAKRLAEELGLKIKRVEIYP [K44R]	18.4
KKKYVIKVYFEDTGKEVEIEAESKEEALEAAKRLAEELGLKIKGVEIYP [K44G]	17.2
KKKYVIKVYFEDTGKEVEIEAESKEEALEAAKRLAEELGLKIKMVEIYP [K44M]	18
KKKYVIKVYFEDTGKEVEIEAESKEEALEAAKRLAEELGLKIKQVEIYP [K44Q]	18.2
KKKYVIKVYFEDTGKEVEIEAESKEEALEAAKRLAEELGLKIKCVEIYP [K44C]	17.2
KKKYVIKVYFEDTGKEVEIEAESKEEALEAAKRLAEELGLKIKVVEIYP [K44V]	17.5
KKKYVIKVYFEDTGKEVEIEAESKEEALEAAKRLAEELGLKIKPVEIYP [K44P]	11.3
KKKYVIKVYFEDTGKEVEIEAESKEEALEAAKRLAEELGLKIKWVEIYP [K44W]	17.7
KKKYVIKVYFEDTGKEVEIEAESKEEALEAAKRLAEELGLKIKKVEIYH [P49H]	20.6
KKKYVIKVYFEDTGKEVEIEAESKEEALEAAKRLAEELGLKIKKVEIYK [P49K]	18.8
KKKYVIKVYFEDTGKEVEIEAESKEEALEAAKRLAEELGLKIKKVEIYM [P49M]	19.6
KKKYVIKVYFEDTGKEVEIEAESKEEALEAAKRLAEELGLKIKKVEIYD [P49D]	19.2
KKKYVIKVYFEDTGKEVEIEAESKEEALEAAKRLAEELGLKIKKVEIYF [P49F]	19.2

Variant	folding stability dG [kJ/mol]
KKKYVIKVYFEDTGKEVEIEAESKEEALEAAKRLAEELGLKIKKVEIYN [P49N]	19.6
KKKYVIKVYFEDTGKEVEIEAESKEEALEAAKRLAEELGLKIKKVEIYG [P49G]	18.8
KKKYVIKVYFEDTGKEVEIEAESKEEALEAAKRLAEELGLKIKKVEIYC [P49C]	18.9
KKKYVIKVYFEDTGKEVEIEAESKEEALEAAKRLAEELGLKIKKVEIYE [P49E]	19.5
KKKYVIKVYFEDTGKEVEIEAESKEEALEAAKRLAEELGLKIKKVEIYL [P49L]	19.3
KKKYVIKVYFEDTGKEVEIEAESKEEALEAAKRLAEELGLKIKKVEIYI [P49I]	19.8
KKKYVIKVYFEDTGKEVEIEAESKEEALEAAKRLAEELGLKIKKVEIYA [P49A]	18.1
KKKYVIKVYFEDTGKEVEIEAESKEEALEAAKRLAEELGLKIKKVEIVP [Y48V]	18.6
KKKYVIKVYFEDTGKEVEIEAESKEEALEAAKRLAEELGLKIKKVEINP [Y48N]	18.6
KKKYVIKVYFEDTGKEVEIEAESKEEALEAAKRLAEELGLKIKKVEIAP [Y48A]	17.8
KKKYVIKVYFEDTGKEVEIEAESKEEALEAAKRLAEELGLKIKKVEIKP [Y48K]	17.6
KKKYVIKVYFEDTGKEVEIEAESKEEALEAAKRLAEELGLKIKKVEIMP [Y48M]	18.4
KKKYVIKVYFEDTGKEVEIEAESKEEALEAAKRLAEELGLKIKKVEIPP [Y48P]	17.1
KKKYVIKVYFEDTGKEVEIEAESKEEALEAAKRLAEELGLKIKKVEIFP [Y48F]	19.4
KKKYVIKVYFEDTGKEVEIEAESKEEALEAAKRLAEELGLKIKKVEISP [Y48S]	17.6
KKKYVIKVYFEDTGKEVEIEAESKEEALEAAKRLAEELGLKIKKVEIQP [Y48Q]	18.3
KKKYVIKVYFEDTGKEVEIEAESKEEALEAAKRLAEELGLKIKKVEIGP [Y48G]	18.1
KKKYVIKVYFEDTGKEVEIEAESKEEALEAAKRLAEELGLKIKKVEIWP [Y48W]	18.9
KKKYVIKVYFEDTGKEVEIEAESKEEALEAAKRLAEELGLKIKKVEICP [Y48C]	18.7
KKKYVIKVYFEDTGKEVEIEAESKEEALEAAKRLAEELGLKIKKVEIHP [Y48H]	18.6
KKKYVIKVYFEDTGKEVEIEAESKEEALEAAKRLAEELGLKIKKVEIDP [Y48D]	17.3
KKKYVIKVYFEDTGKEVEIEAESKEEALEAAKRLAEELGLKIKKVEILP [Y48L]	18.6
KKKYVIKVYFEDTGKEVEIEAESKEEALEAAKRLAEELGLKIKKVEIIP [Y48I]	18.6
KKKYVIKVYFEDTGKEVEIEAESKEEALEAAKRLAEELGLKIKKVEIRP [Y48R]	18.2
KKKYVIKVYFEDTGKEVEIEAESKEEALEAAKRLAEELGLKIKKVEITP [Y48T]	18.9
KKKYVIKVYFEDTGKEVEIEAESKEEALEAAKRLAEELGLKIKKVEIEP [Y48E]	17.2
